Target: T1, SERF2 (Homo sapiens) (UniProt P84101)
T1 sequence: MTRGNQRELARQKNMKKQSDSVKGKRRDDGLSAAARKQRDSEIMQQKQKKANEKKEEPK
Assay: fluorescence polarization
Conditions: FP: 20 mM NaPi pH 7.4, 100 mM KCl, 25 C (20-100 nM FAM-RNA or 200 nM AF488-SERF2); NMR: same buffer, 4 C

Substance	Kd
TERRA60 rG4	< 1 µM
polyG RNA	< 1 µM

Reference: paper doi:10.1101/2023.10.09.561572
